The values that follow come from paper PMC3499301 (mAbs, 2012).

Data set [1] concerns the molecule itself.
In another data set the target is soluble human Tie2-Fc (human, UniProt Q02763). The data set can be described thus: ELISA. For orientation: ELISA stands for enzyme-linked immunosorbent assay.

By stoichiometry N is commonly meant a count of units in the complex or per binding partner.

soluble human Tie2-Fc, sequence (Q02763 23-748): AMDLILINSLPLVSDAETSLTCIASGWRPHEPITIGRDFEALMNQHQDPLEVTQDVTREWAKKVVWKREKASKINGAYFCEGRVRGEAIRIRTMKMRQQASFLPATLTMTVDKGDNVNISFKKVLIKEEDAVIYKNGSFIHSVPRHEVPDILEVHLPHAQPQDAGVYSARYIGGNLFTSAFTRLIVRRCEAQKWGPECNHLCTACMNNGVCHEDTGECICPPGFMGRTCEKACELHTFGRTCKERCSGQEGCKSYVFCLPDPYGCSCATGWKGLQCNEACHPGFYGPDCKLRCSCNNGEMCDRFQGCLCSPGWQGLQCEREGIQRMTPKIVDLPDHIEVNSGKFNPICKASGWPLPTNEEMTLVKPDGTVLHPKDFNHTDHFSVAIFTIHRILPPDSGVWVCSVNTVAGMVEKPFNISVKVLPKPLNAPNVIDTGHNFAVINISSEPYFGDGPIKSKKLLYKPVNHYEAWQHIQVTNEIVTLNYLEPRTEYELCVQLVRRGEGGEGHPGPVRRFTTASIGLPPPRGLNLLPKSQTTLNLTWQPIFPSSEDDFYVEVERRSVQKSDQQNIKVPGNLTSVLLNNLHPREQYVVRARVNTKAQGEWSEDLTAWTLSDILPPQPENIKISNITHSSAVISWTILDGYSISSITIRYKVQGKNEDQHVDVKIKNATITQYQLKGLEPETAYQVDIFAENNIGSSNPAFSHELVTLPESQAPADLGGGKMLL

B1: His-tagged Ang2 prepared in-house (Zyngenia) (ligand)
chain: YNNFRKSMDSIGKKQYQVQHGSCSYTFLLPEMDNCRSSSSPYVSNAVQRDAPLEYDDSVQRLQVLENIMENNTQWLMKLENYIQDNMKKEMVEIQQNAVQNQTAVMIEIGTNLLNQTAEQTRKLTDVEAQVLNQTTRLELQLLEHSLSTNKLEKQILDQTSEINKLQDKNSFLEKKVLAMEDKHIIQLQSIKEEKDQLQVLVSKQNSIIEELEKKIVTATVNNSVLQKQQHDLMETVNNLLTMMSTSNSAKDPTVAKEEQISFRDCAEVFKSGHTTNGIYTLTFPNSTEEIKAYCDMEAGGGGWTIIQRREDGSVDFQRTWKEYKVGFGNPSGEYWLGNEFVSQLTNQQRYVLKIHLKDWEGNEAYSLYEHFYLSSEELNYRIHLKGLTGTAGKISSISQPGNDFSTKDGDNDKCICKCSQMLTGGWWFDACGPSNLNGMYYPQRQNTNKFNGIKWYYWKGSGYSLKATTMMIRPADF
Turning to B1, the “stoichiometry N” value in data set [1] turned out to be 2.

B2: Recombinant human Ang2 (R&D Systems) (ligand)
chain: YNNFRKSMDSIGKKQYQVQHGSCSYTFLLPEMDNCRSSSSPYVSNAVQRDAPLEYDDSVQRLQVLENIMENNTQWLMKLENYIQDNMKKEMVEIQQNAVQNQTAVMIEIGTNLLNQTAEQTRKLTDVEAQVLNQTTRLELQLLEHSLSTNKLEKQILDQTSEINKLQDKNSFLEKKVLAMEDKHIIQLQSIKEEKDQLQVLVSKQNSIIEELEKKIVTATVNNSVLQKQQHDLMETVNNLLTMMSTSNSAKDPTVAKEEQISFRDCAEVFKSGHTTNGIYTLTFPNSTEEIKAYCDMEAGGGGWTIIQRREDGSVDFQRTWKEYKVGFGNPSGEYWLGNEFVSQLTNQQRYVLKIHLKDWEGNEAYSLYEHFYLSSEELNYRIHLKGLTGTAGKISSISQPGNDFSTKDGDNDKCICKCSQMLTGGWWFDACGPSNLNGMYYPQRQNTNKFNGIKWYYWKGSGYSLKATTMMIRPADF
Turning to B2, the binding result in the data set with soluble human Tie2-Fc is listed as “binds”.
